Drawing on US20130261012A1 (published 2013), this text covers Kd for one molecule.

This experiment concerns the target S3. Put plainly: apparent affinity of recombinant chimeric mAb, cell binding.

B1: FZD10 (receptor)
chain: ISSMDMERPGDGKCQPIEIPMCKDIGYNMTRMPNLMGHENQREAAIQLHEFAPLVEYGCHGHLRFFLCSLYAPMCTEQVSTPIPACRVMCEQARLKCSPIMEQFNFKWPDSLDCRKLPNKNDPNYLCMEAPNNGSDEPTRGSGLFPPLFRPQRPHSAQEHPLKDGGPGRGGCDNPGKFHHVEKSASCAPLCTPGVDVYWSREDKRFAVVWLAIWAVLCFFSSAFTVLTFLIDPARFRYPERPIIFLSMCYCVYSVGYLIRLFAGAESIACDRDSGQLYVIQEGLESTGCTLVFLVLYYFGMASSLWWVVLTLTWFLAAGKKWGHEAIEANSSYFHLAAWAIPAVKTILILVMRRVAGDELTGVCYVGSMDVNALTGFVLIPLACYLVIGTSFILSGFVALFHIRRVMKTGGENTDKLEKLMVRIGLFSVLYTVPATCVIACYFYERLNMDYWKILAAQHKCKMNNQTKTLDCLMAASIPAVEIFMVKIFMLLVVGITSGMWIWTSKTLQSWQQVCSRRLKKKSRRKPASVITSGGIYKKAQHPQKTHHGKYEIPAQSPTCV
For the molecule B1, the Kd is above 40 nM.
